Common to all, as to type: binding
Assay [1] in a line: Fluorescence titration of Bbp muteins with digoxigenin. The protocol: (§1) The ligand binding properties of muteins DigA, DigA16 and also of the recombinant bilin-binding protein (encoded by SEQ ID NO:16) were determined by means of the method of fluorescence titration. In this case, the decrease in intrinsic tyrosine and/or tryptophan fluorescence of the protein forming a complex with the ligand was measured. The measurements were carried out in a fluorimeter, type LS 50 B (Perkin Elmer) at an excitation wavelength of 295 nm (slit width 4 nm) and an emission wavelength of 345 nm (slit width 6 nm). The ligands used were digoxigenin (Fluka), digoxin (Fluka), digitoxigenin (Fluka), digitoxin (Fluka), testosterone (Sigma), ouabain (Fluka), and 4-aminofluorescein (Fluka).
(§2) The buffer system used was PBS with the addition of 1 mM EDTA. […] The concentration was determined by means of absorption at 280 nm using calculated extinction coefficients of 53580 M^−1 cm^−1 for DigA and DigA16 (Wisconsin Software Package, Genetics Computer Group). For Bbp, the calculated extinction coefficient of 54150 M^−1 cm^−1, corrected in the presence of guanidinium chloride according to Gill and von Hippel (Anal. Biochem. 182 (1989), 319–326) was used. […]
(§3) Here, F means the normalized fluorescence intensity and [L]t the total ligand concentration in the particular titration step. […]

Assay [2] can be described thus: Fluorescence titration of Bbp muteins with digoxin. Particulars: 1 μM mutein, PBS with 1 mM EDTA, 25° C., read-out: Kd, ligand digoxin. As to the method: as §1, §2, §3
Assay [3] is described as follows: Fluorescence titration of Bbp muteins with digitoxigenin. The protocol: as §1, §2, §3
Assay [4] can be described thus: Fluorescence titration of Bbp muteins with digitoxin. The following applies: 1 μM mutein, PBS with 1 mM EDTA, 25° C., read-out: Kd, ligand digitoxin. The protocol:
as §1, §2, §3

Assay [5] can be described thus: Fluorescence titration of Bbp muteins with ouabain. As to the method: as §1, §2, §3
The nature of assay [6]: Fluorescence titration of Bbp muteins with testosterone. Particulars: 1 μM mutein, PBS with 1 mM EDTA, 25° C., read-out: Kd, ligand testosterone. The protocol:
as §1, §2, §3

The nature of assay [7]: Fluorescence titration of Bbp muteins with 4-aminofluorescein. The following applies: 1 μM mutein, PBS with 1 mM EDTA, 25° C., read-out: Kd, ligand 4-aminofluroescein. As to the method: as §1, §2, §3
Assay [8] is described as follows: Sandwich ELISA detecting digoxigenin groups with DigA16-alkaline phosphatase fusion proteins. Particulars: p-nitrophenyl phosphate hydrolysis, 405 nm, FIG. 3. The text has this: Here, the digoxigenin groups were coupled on the one hand to bovine serum albumin (BSA, squares) or, on the other hand, to chicken egg albumin (ovalbumin, triangles) The control data shown are those obtained when using underivatized bovine serum albumin and the fusion protein encoded by pBBP27 (open circles). The enzymatic activity corresponding to the particular bound fusion protein was monitored spectrophotometrically at 405 nm on the basis of p-nitrophenyl phosphate hydrolysis. Curve fitting was carried out by non-linear regression with the aid of the Kaleidagraph computer program (Abelbeck Software) by means of the equation [P·L]=[L]t[P]t/(Kd+[P]t)
Here, [P]t corresponds to the total fusion protein concentration used in the particular microtiter plate well. [P·L] is determined on the basis of the enzymatic activity of alkaline phosphatase. […]
For detecting digoxigenin groups in a sandwich ELISA, the wells in in each case two rows of a microtiter plate (ELISA strips, 2×8 well with high binding capacity, F-type, Greiner) were filled in each case with 100 μl of a 100 μg/ml solution of the BSA-digoxigenin conjugate or the ovalbumin-digoxigenin conjugate in PBS and incubated at RT overnight. […] The fusion proteins bound to the digoxigenin groups were finally detected by means of alkaline phosphatase-catalyzed hydrolysis of p-nitrophenyl phosphate. […]
In general terms: ELISA stands for enzyme-linked immunosorbent assay.

Changes are numbered by the printed parent chain.

B1: DigA16: affinity-improved mutein of the bilin-binding protein derived from DigA, encoded by SEQ ID NO:15 (polypeptide SEQ ID NO: 23) (protein)
chain: DVYHDGACPEVKPVDNFDWSQYHGKWWQVAAYPDHITKYGKCGWAEYTPEGKSVKVSRYSVIHGKEYFSEGTAYPVGDSKIGKIYHSYTIGGVTQEGVFNVLSTDNKNYIIGYFCSYDEDKKGHMDLVWVLSRSMVLTGEAKTAVENYLIGSPVVDSQKLVYSDFSEAACKVNN
For B1, the Kd in assay [1] (fluorescence titration, 1 μM mutein, PBS with 1 mM EDTA, 25° C., read-out: Kd, ligand digoxigenin) is 30.2 ± 3.6 nM; in assay [2], 31.1 ± 3.2 nM; in assay [3] (1 μM mutein, PBS with 1 mM EDTA, 25° C., read-out: Kd, ligand digitoxigenin), 2.8 ± 2.7 nM; in assay [4], 2.7 ± 2 nM; in assay [5] (1 μM mutein, PBS with 1 mM EDTA, 25° C., read-out: Kd, ligand ouabain) it was > 10000 nM; in assay [6], > 10000 nM. Besides, in assay [7], the Kd is > 10000 nM. In addition, the “binding of digitoxigenin compared with digoxigenin (FIG. 1, in words)” value in assay [3] (FIG. 1) was “bound even tighter than digoxigenin”. Moreover, the “binding of ouabain (FIG. 1, in words)” value in assay [5] (FIG. 1) is given as “no binding is observed”. Moreover, the “binding of the digoxigenin group as conjugate with BSA and with ovalbumin in ELISA (in words)” value in assay [8] was “context-independent”.

B2: DigA: mutein of the bilin-binding protein selected for digoxigenin binding, SEQ ID NO:12 (amino acid sequence SEQ ID NO: 21) (protein)
chain: B1 chain with Q28E, A31K, D34H, I36E, T37R
For the molecule B2, the Kd is 295 ± 36 nM in assay [1] (determined according to Example 3, read-out: affinity between the mutein and digoxigenin); 200 ± 34 nM in assay [2].
